In patent publication US9284543B2, “Neutral active soluble truncated PH20 polypeptides and uses thereof” (Halozyme, Inc., priority 2008, dated 2016):

Assays:
[1] = Microtiter hyaluronidase activity assay with biotinylated-hyaluronic acid; type: biochemical; conditions: Table 6, 72 hour post transfection supernatant
[2] = system: CHO-S cells; assay: Western blot analysis of PH20 expression in media and cells after transient expression; type: cell-based, Chinese Hamster; conditions: media versus cells
Summary of the method: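 PH20 expression and solubility were judged by anti-PH20 Western blot of non-reduced media and cell fractions, with expression shown by a ~66 kDa band. Samples came from CHO-S cells transiently transfected (GeneJuice) with mutant PH20-HZ24 DNA and cultured 48-72 h. GPI-anchored mutants were cleaved with PI-PLC to release soluble protein.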

Molecule	pH 5.5 Activity [1]	pH 7.4 Activity [1]	Expressed in Media [2]
SPAM1-PPME: C-terminally truncated human PH20, precursor 474 aa (SEQ ID NO:26), mature 439 aa (SEQ ID NO:78) (protein, listed as Homo sapiens, HuPH20 precursor 1-474; Mature HuPH20 36-474) chain 1: MGVLKFKHIFFRSFVKSSGVSQIVFTFLLIPCCLTLNFRAPPVIPNVPFLWAWNAPSEFCLGKFDEPLDMSLFSFIGSPRINATGQGVTIFYVDRLGYYPYIDSITGVTVNGGIPQKISLQDHLDKAKKDITFYMPVDNLGMAVIDWEEWRPTWARNWKPKDVYKNRSIELVQQQNVQLSLTEATEKAKQEFEKAGKDFLVETIKLGKLLRPNHLWGYYLFPDCYNHHYKKPGYNGSCFNVEIKRNDDLSWLWNESTALYPSIYLNTQQSPVAATLYVRNRVREAIRVSKIPDAKSPLPVFAYTRIVFTDQVLKFLSQDELVYTFGETVALGASGIVIWGTLSIMRSMKSCLLLDNYMETILNPYIINVTLAAKMCSQVLCQEQGVCIRKNWNSSDYLHLNPDNFAIQLEKGGKFTVRGKPTLEDLEQFSEKFYCSCYSTLSCKEKADVKDTDAVDVCIADGVCIDAFLKPPME chain 2: LNFRAPPVIPNVPFLWAWNAPSEFCLGKFDEPLDMSLFSFIGSPRINATGQGVTIFYVDRLGYYPYIDSITGVTVNGGIPQKISLQDHLDKAKKDITFYMPVDNLGMAVIDWEEWRPTWARNWKPKDVYKNRSIELVQQQNVQLSLTEATEKAKQEFEKAGKDFLVETIKLGKLLRPNHLWGYYLFPDCYNHHYKKPGYNGSCFNVEIKRNDDLSWLWNESTALYPSIYLNTQQSPVAATLYVRNRVREAIRVSKIPDAKSPLPVFAYTRIVFTDQVLKFLSQDELVYTFGETVALGASGIVIWGTLSIMRSMKSCLLLDNYMETILNPYIINVTLAAKMCSQVLCQEQGVCIRKNWNSSDYLHLNPDNFAIQLEKGGKFTVRGKPTLEDLEQFSEKFYCSCYSTLSCKEKADVKDTDAVDVCIADGVCIDAFLKPPME	1.341 Units/ml	1.2105 Units/ml	YES
SPAM1-LKPP: C-terminally truncated human PH20, precursor 472 aa (SEQ ID NO:28), mature 437 aa (SEQ ID NO:80) (protein, listed as Homo sapiens, HuPH20 precursor 1-472; Mature HuPH20 36-472) chain 1: MGVLKFKHIFFRSFVKSSGVSQIVFTFLLIPCCLTLNFRAPPVIPNVPFLWAWNAPSEFCLGKFDEPLDMSLFSFIGSPRINATGQGVTIFYVDRLGYYPYIDSITGVTVNGGIPQKISLQDHLDKAKKDITFYMPVDNLGMAVIDWEEWRPTWARNWKPKDVYKNRSIELVQQQNVQLSLTEATEKAKQEFEKAGKDFLVETIKLGKLLRPNHLWGYYLFPDCYNHHYKKPGYNGSCFNVEIKRNDDLSWLWNESTALYPSIYLNTQQSPVAATLYVRNRVREAIRVSKIPDAKSPLPVFAYTRIVFTDQVLKFLSQDELVYTFGETVALGASGIVIWGTLSIMRSMKSCLLLDNYMETILNPYIINVTLAAKMCSQVLCQEQGVCIRKNWNSSDYLHLNPDNFAIQLEKGGKFTVRGKPTLEDLEQFSEKFYCSCYSTLSCKEKADVKDTDAVDVCIADGVCIDAFLKPP chain 2: LNFRAPPVIPNVPFLWAWNAPSEFCLGKFDEPLDMSLFSFIGSPRINATGQGVTIFYVDRLGYYPYIDSITGVTVNGGIPQKISLQDHLDKAKKDITFYMPVDNLGMAVIDWEEWRPTWARNWKPKDVYKNRSIELVQQQNVQLSLTEATEKAKQEFEKAGKDFLVETIKLGKLLRPNHLWGYYLFPDCYNHHYKKPGYNGSCFNVEIKRNDDLSWLWNESTALYPSIYLNTQQSPVAATLYVRNRVREAIRVSKIPDAKSPLPVFAYTRIVFTDQVLKFLSQDELVYTFGETVALGASGIVIWGTLSIMRSMKSCLLLDNYMETILNPYIINVTLAAKMCSQVLCQEQGVCIRKNWNSSDYLHLNPDNFAIQLEKGGKFTVRGKPTLEDLEQFSEKFYCSCYSTLSCKEKADVKDTDAVDVCIADGVCIDAFLKPP	0.9 Units/ml	0.5445 Units/ml	YES

Now from value to molecule, other results behind:

pH 5.5 Activity [1]	pH 7.4 Activity [1]	Molecule	Expressed in Media [2]
0.9157 Units/ml	0.8595 Units/ml	SPAM1-KPPM: C-terminally truncated human PH20, precursor 473 aa (SEQ ID NO:27), mature 438 aa (SEQ ID NO:79) (protein, listed as Homo sapiens, HuPH20 precursor 1-473; Mature HuPH20 36-473) chain 1: MGVLKFKHIFFRSFVKSSGVSQIVFTFLLIPCCLTLNFRAPPVIPNVPFLWAWNAPSEFCLGKFDEPLDMSLFSFIGSPRINATGQGVTIFYVDRLGYYPYIDSITGVTVNGGIPQKISLQDHLDKAKKDITFYMPVDNLGMAVIDWEEWRPTWARNWKPKDVYKNRSIELVQQQNVQLSLTEATEKAKQEFEKAGKDFLVETIKLGKLLRPNHLWGYYLFPDCYNHHYKKPGYNGSCFNVEIKRNDDLSWLWNESTALYPSIYLNTQQSPVAATLYVRNRVREAIRVSKIPDAKSPLPVFAYTRIVFTDQVLKFLSQDELVYTFGETVALGASGIVIWGTLSIMRSMKSCLLLDNYMETILNPYIINVTLAAKMCSQVLCQEQGVCIRKNWNSSDYLHLNPDNFAIQLEKGGKFTVRGKPTLEDLEQFSEKFYCSCYSTLSCKEKADVKDTDAVDVCIADGVCIDAFLKPPM chain 2: LNFRAPPVIPNVPFLWAWNAPSEFCLGKFDEPLDMSLFSFIGSPRINATGQGVTIFYVDRLGYYPYIDSITGVTVNGGIPQKISLQDHLDKAKKDITFYMPVDNLGMAVIDWEEWRPTWARNWKPKDVYKNRSIELVQQQNVQLSLTEATEKAKQEFEKAGKDFLVETIKLGKLLRPNHLWGYYLFPDCYNHHYKKPGYNGSCFNVEIKRNDDLSWLWNESTALYPSIYLNTQQSPVAATLYVRNRVREAIRVSKIPDAKSPLPVFAYTRIVFTDQVLKFLSQDELVYTFGETVALGASGIVIWGTLSIMRSMKSCLLLDNYMETILNPYIINVTLAAKMCSQVLCQEQGVCIRKNWNSSDYLHLNPDNFAIQLEKGGKFTVRGKPTLEDLEQFSEKFYCSCYSTLSCKEKADVKDTDAVDVCIADGVCIDAFLKPPM	YES
2.0925 Units/ml	2.223 Units/ml	SPAM1-PMET: C-terminally truncated human PH20, precursor 475 aa (SEQ ID NO:25), mature 440 aa (SEQ ID NO:77) (protein, listed as Homo sapiens, HuPH20 precursor 1-475; Mature HuPH20 36-475) chain 1: MGVLKFKHIFFRSFVKSSGVSQIVFTFLLIPCCLTLNFRAPPVIPNVPFLWAWNAPSEFCLGKFDEPLDMSLFSFIGSPRINATGQGVTIFYVDRLGYYPYIDSITGVTVNGGIPQKISLQDHLDKAKKDITFYMPVDNLGMAVIDWEEWRPTWARNWKPKDVYKNRSIELVQQQNVQLSLTEATEKAKQEFEKAGKDFLVETIKLGKLLRPNHLWGYYLFPDCYNHHYKKPGYNGSCFNVEIKRNDDLSWLWNESTALYPSIYLNTQQSPVAATLYVRNRVREAIRVSKIPDAKSPLPVFAYTRIVFTDQVLKFLSQDELVYTFGETVALGASGIVIWGTLSIMRSMKSCLLLDNYMETILNPYIINVTLAAKMCSQVLCQEQGVCIRKNWNSSDYLHLNPDNFAIQLEKGGKFTVRGKPTLEDLEQFSEKFYCSCYSTLSCKEKADVKDTDAVDVCIADGVCIDAFLKPPMET chain 2: LNFRAPPVIPNVPFLWAWNAPSEFCLGKFDEPLDMSLFSFIGSPRINATGQGVTIFYVDRLGYYPYIDSITGVTVNGGIPQKISLQDHLDKAKKDITFYMPVDNLGMAVIDWEEWRPTWARNWKPKDVYKNRSIELVQQQNVQLSLTEATEKAKQEFEKAGKDFLVETIKLGKLLRPNHLWGYYLFPDCYNHHYKKPGYNGSCFNVEIKRNDDLSWLWNESTALYPSIYLNTQQSPVAATLYVRNRVREAIRVSKIPDAKSPLPVFAYTRIVFTDQVLKFLSQDELVYTFGETVALGASGIVIWGTLSIMRSMKSCLLLDNYMETILNPYIINVTLAAKMCSQVLCQEQGVCIRKNWNSSDYLHLNPDNFAIQLEKGGKFTVRGKPTLEDLEQFSEKFYCSCYSTLSCKEKADVKDTDAVDVCIADGVCIDAFLKPPMET	YES
